Test system: Escherichia coli TOP10
Assay: shrunken log2 fold change of peptide-encoding DNA abundance (4.5 h post-induction vs induction); higher = less antimicrobial activity (less host growth inhibition)
Conditions: time post-induction: 4.5 h; library: site-saturation at positions 5, 18, 19, 20
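Further: peptides expressed intracellularly from a pBAD plasmid library in pooled LB shake-flask culture, induced with 0.3% L-arabinose, DNA abundance read by NGS, three biological replicates, DESeq2 with apeglm shrinkage.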

Row | Sequence | shrunken log2 fold change
1 | RRIRWRPPRLPRPRPRPVYIPRP | -0.0308
2 | RRIRQRPPRLPRPRPRPAVWPRP | 0.939
3 | RRIRDRPPRLPRPRPRPVCMPRP | 0.219
4 | RRIRDRPPRLPRPRPRPMPEPRP | 0.0845
5 | RRIRERPPRLPRPRPRPHENPRP | -0.365
6 | RRIRIRPPRLPRPRPRPDWTPRP | 0.0313
7 | RRIRPRPPRLPRPRPRPPSLPRP | 0.381
8 | RRIRGRPPRLPRPRPRPRGKPRP | 0.341
9 | RRIRSRPPRLPRPRPRPQVRPRP | 0.0563
10 | RRIRHRPPRLPRPRPRPWIWPRP | -0.0845
11 | RRIRTRPPRLPRPRPRPMLFPRP | 0.177
12 | RRIRARPPRLPRPRPRPNIVPRP | 0.0466
13 | RRIRERPPRLPRPRPRPYFFPRP | -0.587
14 | RRIRPRPPRLPRPRPRPHGGPRP | 0.216
15 | RRIRMRPPRLPRPRPRPNRRPRP | 0.179
16 | RRIRRRPPRLPRPRPRPMHRPRP | 0.0514
17 | RRIRYRPPRLPRPRPRPMYCPRP | -0.00674
18 | RRIRIRPPRLPRPRPRPVSGPRP | 0.0231
19 | RRIRQRPPRLPRPRPRPFYPPRP | 0.0712
20 | RRIRPRPPRLPRPRPRPKPKPRP | 0.382
21 | RRIRGRPPRLPRPRPRPGEIPRP | 0.727
22 | RRIRTRPPRLPRPRPRPDLFPRP | -0.0784
23 | RRIRARPPRLPRPRPRPRPYPRP | 0.375
24 | RRIRLRPPRLPRPRPRPQDLPRP | -0.0513
25 | RRIRHRPPRLPRPRPRPASCPRP | -0.5

Row | Sequence | shrunken log2 fold change
26 | RRIRTRPPRLPRPRPRPRNEPRP | -0.0624
27 | RRIRGRPPRLPRPRPRPFMSPRP | -0.192
28 | RRIRFRPPRLPRPRPRPSFQPRP | -0.145
29 | RRIRCRPPRLPRPRPRPIYDPRP | -0.867
30 | RRIRMRPPRLPRPRPRPNLRPRP | -0.0219
31 | RRIRSRPPRLPRPRPRPFRTPRP | -0.318
32 | RRIRHRPPRLPRPRPRPYFTPRP | -0.679
33 | RRIRFRPPRLPRPRPRPPPSPRP | 1.35
34 | RRIRHRPPRLPRPRPRPLSDPRP | -0.0615
35 | RRIRARPPRLPRPRPRPMTEPRP | 0.356
36 | RRIRPRPPRLPRPRPRPYIRPRP | -0.297
37 | RRIRFRPPRLPRPRPRPLNEPRP | -0.226
38 | RRIRYRPPRLPRPRPRPFQFPRP | 0.015
39 | RRIRARPPRLPRPRPRPCLCPRP | -0.495
40 | RRIRCRPPRLPRPRPRPWYFPRP | -0.264
41 | RRIRQRPPRLPRPRPRPSNCPRP | -0.136
42 | RRIRSRPPRLPRPRPRPIAEPRP | -0.0272
43 | RRIRERPPRLPRPRPRPMFTPRP | -0.278
44 | RRIRPRPPRLPRPRPRPLHKPRP | -0.00927
45 | RRIRTRPPRLPRPRPRPGSIPRP | -0.025
46 | RRIRARPPRLPRPRPRPFKIPRP | -0.0575
47 | RRIRKRPPRLPRPRPRPHFFPRP | 0.101
48 | RRIRWRPPRLPRPRPRPTANPRP | 0.399
49 | RRIRGRPPRLPRPRPRPKNHPRP | 0.179
50 | RRIRRRPPRLPRPRPRPIGQPRP | 0.182

Row | Sequence | shrunken log2 fold change
51 | RRIRARPPRLPRPRPRPRCSPRP | 0.205
52 | RRIRGRPPRLPRPRPRPHAHPRP | 0.895
53 | RRIRLRPPRLPRPRPRPTEAPRP | -0.00104
54 | RRIRSRPPRLPRPRPRPHERPRP | 7.23e-05
55 | RRIRMRPPRLPRPRPRPHWVPRP | -0.0142
56 | RRIRERPPRLPRPRPRPCWHPRP | -0.523
57 | RRIRHRPPRLPRPRPRPIAPPRP | 0.0449
58 | RRIRGRPPRLPRPRPRPFRIPRP | -0.212
59 | RRIRLRPPRLPRPRPRPESRPRP | 0.0418
60 | RRIRDRPPRLPRPRPRPRKSPRP | -0.0168
61 | RRIRSRPPRLPRPRPRPKMRPRP | 0.269
62 | RRIRRRPPRLPRPRPRPGKTPRP | 0.104
63 | RRIRLRPPRLPRPRPRPHEDPRP | -0.682
64 | RRIRFRPPRLPRPRPRPNAMPRP | -0.191
65 | RRIRLRPPRLPRPRPRPGDSPRP | -0.23
66 | RRIRTRPPRLPRPRPRPGGCPRP | 0.26
67 | RRIRDRPPRLPRPRPRPIIMPRP | -0.226
68 | RRIRDRPPRLPRPRPRPMGLPRP | -0.00663
69 | RRIRSRPPRLPRPRPRPIRYPRP | 0.31
70 | RRIRFRPPRLPRPRPRPGAQPRP | 0.247
71 | RRIRARPPRLPRPRPRPRPKPRP | 0.916
72 | RRIRDRPPRLPRPRPRPKYMPRP | -0.326
73 | RRIRCRPPRLPRPRPRPDHRPRP | -0.106
74 | RRIRIRPPRLPRPRPRPDNQPRP | -1.03
75 | RRIRCRPPRLPRPRPRPKFPPRP | -0.0293

Row | Sequence | shrunken log2 fold change
76 | RRIRWRPPRLPRPRPRPDPDPRP | 0.545
77 | RRIRNRPPRLPRPRPRPTRFPRP | 0.3
78 | RRIRVRPPRLPRPRPRPADTPRP | -0.32
79 | RRIRSRPPRLPRPRPRPPYRPRP | -0.119
80 | RRIRKRPPRLPRPRPRPYWFPRP | 0.00102
81 | RRIRTRPPRLPRPRPRPGNFPRP | -0.0548
82 | RRIRHRPPRLPRPRPRPRLLPRP | -0.113
83 | RRIRRRPPRLPRPRPRPLYVPRP | -0.379
84 | RRIRVRPPRLPRPRPRPLNVPRP | -0.434
85 | RRIRFRPPRLPRPRPRPGARPRP | 0.355
86 | RRIRLRPPRLPRPRPRPKQHPRP | -0.103
87 | RRIRRRPPRLPRPRPRPRACPRP | 0.352
88 | RRIRCRPPRLPRPRPRPPESPRP | 0.347
89 | RRIRGRPPRLPRPRPRPMDQPRP | 0.489
90 | RRIRNRPPRLPRPRPRPDKKPRP | -0.0263
91 | RRIRGRPPRLPRPRPRPAADPRP | 2.21
92 | RRIRPRPPRLPRPRPRPGQYPRP | 0.0431
93 | RRIRLRPPRLPRPRPRPQDNPRP | -0.428
94 | RRIRNRPPRLPRPRPRPLYQPRP | -0.357
95 | RRIRVRPPRLPRPRPRPKWKPRP | -0.0377
96 | RRIRPRPPRLPRPRPRPSKFPRP | -0.494
97 | RRIRYRPPRLPRPRPRPNLMPRP | -0.617
98 | RRIRRRPPRLPRPRPRPWTPPRP | 0.568
99 | RRIRLRPPRLPRPRPRPHDEPRP | 0.0746
100 | RRIRMRPPRLPRPRPRPRRIPRP | 0.767

Row | Sequence | shrunken log2 fold change
101 | RRIRTRPPRLPRPRPRPWRMPRP | -0.139
102 | RRIRGRPPRLPRPRPRPKWKPRP | 0.202
103 | RRIRGRPPRLPRPRPRPYPDPRP | 0.201
104 | RRIRWRPPRLPRPRPRPLRNPRP | 0.847
105 | RRIRWRPPRLPRPRPRPGGMPRP | 0.286
106 | RRIRVRPPRLPRPRPRPTFQPRP | -0.0952
107 | RRIRFRPPRLPRPRPRPHIRPRP | -0.113
108 | RRIRHRPPRLPRPRPRPFLRPRP | -0.173
109 | RRIRGRPPRLPRPRPRPSAQPRP | 1.26
110 | RRIRFRPPRLPRPRPRPSGFPRP | -0.207
111 | RRIRLRPPRLPRPRPRPVESPRP | -0.0112
112 | RRIRCRPPRLPRPRPRPMCQPRP | -0.0371
113 | RRIRQRPPRLPRPRPRPWHHPRP | -0.00612
114 | RRIRYRPPRLPRPRPRPAYDPRP | -0.236
115 | RRIRMRPPRLPRPRPRPDYCPRP | -0.369
116 | RRIRARPPRLPRPRPRPFYCPRP | -0.402
117 | RRIRDRPPRLPRPRPRPDCWPRP | 1.65
118 | RRIRARPPRLPRPRPRPQRCPRP | 0.256
119 | RRIRIRPPRLPRPRPRPEDGPRP | -0.00203
120 | RRIRMRPPRLPRPRPRPEENPRP | 3.95
121 | RRIRYRPPRLPRPRPRPAGVPRP | 0.0619
122 | RRIRMRPPRLPRPRPRPVMPPRP | -0.0271
123 | RRIRFRPPRLPRPRPRPRTLPRP | 0.165
124 | RRIRYRPPRLPRPRPRPKEKPRP | -0.0829
125 | RRIRYRPPRLPRPRPRPGIAPRP | -0.269

Reference: the supplement of paper PMC9112550, “Optimization of the antimicrobial peptide Bac7 by deep mutational scanning” (BMC Biology, 2022)
